From IntAct's records for PubMed 23736261

B1: Catenin beta-1 (Homo sapiens), P35222 (parent)
chain: MATQADLMELDMAMEPDRKAAVSHWQQQSYLDSGIHSGATTTAPSLSGKGNPEEEDVDTSQVLYEWEQGFSQSFTQEQVADIDGQYAMTRAQRVRAAMFPETLDEGMQIPSTQFDAAHPTNVQRLAEPSQMLKHAVVNLINYQDDAELATRAIPELTKLLNDEDQVVVNKAAVMVHQLSKKEASRHAIMRSPQMVSAIVRTMQNTNDVETARCTAGTLHNLSHHREGLLAIFKSGGIPALVKMLGSPVDSVLFYAITTLHNLLLHQEGAKMAVRLAGGLQKMVALLNKTNVKFLAITTDCLQILAYGNQESKLIILASGGPQALVNIMRTYTYEKLLWTTSRVLKVLSVCSSNKPAIVEAGGMQALGLHLTDPSQRLVQNCLWTLRNLSDAATKQEGMEGLLGTLVQLLGSDDINVVTCAAGILSNLTCNNYKNKMMVCQVGGIEALVRTVLRAGDREDITEPAICALRHLTSRHQEAEMAQNAVRLHYGLPVVVKLLHPPSHWPLIKATVGLIRNLALCPANHAPLREQGAIPRLVQLLVRAHQDTQRRTSMGGTQQQFVEGVRMEEIVEGCTGALHILARDVHNRIVIRGLNTIPLFVQLLYSPIENIQRVAAGVLCELAQDKEAAEAIEAEGATAPLTELLHSRNEGVATYAAAVLFRMSEDKPQDYKKRLSVELTSSLFRTEPMAWNETADLGLDIGAQGEPLGYRQDDPSYRSFHSGGYGQDALGMDPMMEHEMGGHHPGADYPVDGLPDLGHAQDLMDGLPPGDSNQLAWFDTDL

Variants of: B1
Details: with mlp3b_human MAP1LC3B

effect of a mutation on the interaction	Variant
disrupting interaction	W504A;I507A

Variants of: B1
Details: with mlp3b_human MAP1LC3B
Remark: another data set of the same source

effect of a mutation on the interaction	Variant
decreasing interaction	W504A;I507A
